Source: patent US20190292537, “Prokaryotic Argonaute Proteins and Uses Thereof” (Wageningen Universiteit, published 2019)

Columns and labels:
Conditions in all cases: tags: His-MBP N-terminal (TEV added during purification)
CbAgo [1] = biological target: T1, CbAgo (Clostridium butyricum, UniProt P0DYD1 SEQ:1-748); assay: EMSA; DNA guide preloaded, 37 C; target printed as 7043 in text, 7023 in Table 2
Experimental: (§1) CbAgo (10 pmol) was pre-incubated with the desired polynucleotide guide (RNA guide: 7024, DNA guide: 3466, 10 pmol) for 5 min at 37° C. This was followed by addition of a target polynucleotide (RNA target: […]: 7043, 10 pmol) and another incubation step of 5 min at 37° C. The reactions were then resolved on a 6% Native PAGE gel and stained with SYBR gold.

CbAgo [2] = biological target: T1, CbAgo; assay: EMSA; RNA guide, DNA target, 37 C; target printed as 7043 in text, 7023 in Table 2
Experimental: as §1

CbAgo [3] = biological target: T1, CbAgo; assay: EMSA; DNA guide, RNA target, 37 C
Experimental: as §1

CbAgo [4] = biological target: T1, CbAgo; assay: EMSA; RNA guide, RNA target, 37 C
Experimental: as §1

B1: DNA guide 3466 ; DNA target 7023 (ssDNA ; ssDNA)
DNA 1: TGAGGTAGTAGGTTGTATAGT
DNA 2: AAACGACGGCCAGTGCCAAGCTTACTATACAACCTACTACCTCAT
modifications: 5'-phosphate ; 5'-phosphate
binding result (CbAgo [1]): binds

B2: RNA guide 7024 ; DNA target 7023 (ssRNA ; ssDNA)
RNA: UGAGGUAGUAGGUUGUAUAGU
DNA: AAACGACGGCCAGTGCCAAGCTTACTATACAACCTACTACCTCAT
modifications: 5'-phosphate ; 5'-phosphate
binding result (CbAgo [2]): binds

B3: DNA guide 3466 ; RNA target 7022 (ssDNA ; ssRNA)
DNA: TGAGGTAGTAGGTTGTATAGT
RNA: AAACGACGGCCAGUGCCAAGCUUACUAUACAACCUACUACCUCAU
modifications: 5'-phosphate ; 5'-phosphate
binding result (CbAgo [3]): binds

B4: RNA guide 7024 ; RNA target 7022 (ssRNA ; ssRNA)
RNA 1: UGAGGUAGUAGGUUGUAUAGU
RNA 2: AAACGACGGCCAGUGCCAAGCUUACUAUACAACCUACUACCUCAU
modifications: 5'-phosphate ; 5'-phosphate
binding result (CbAgo [4]): binds
